# Results from the DeepSol protein solubility set.
# Assay: soluble on expression in E. coli; label from the status in PepcDB or PDB records
row,Sequence,soluble on expression in E. coli
1,MAHHHHHHMRPTCVCAVRAVRMYVPMRVAATGGATPSAASPAGDNASTSSEVRAARRITEAVLSARAKHKLQHRQPSPPTPVPPSVRAKAKAPRSPASDIEEGVVKDTVTVEVQTAARLALSYGKSAFMTHLVHQHDDAHQRPGTVSASEWDQPMVSDAGEPEASVMTASSETCAVLPLRARTPTIPRAAAGTPGLQMAIDKWWRDLTDEARVRWITSTPQGRRALQHATKLAKFRNVSCGQGRSSNSGAHVVPSMESMLTKYKNTLAQPRLPRAAALAPSPKESILRMKLQDEKGASVSPSSKPTTVSSALAGMMHAASENNANRRLLRDRADAVRREEQRKLWHQALVQFLGGASAFTFVHDVKDLQQPRTEAEQAVKREPGAQSGGGAGRATTVAPNTPAATATGNATPEEMADDGAPVAFSDGLLDMCEGLGIRSPRRAYVLSRVLPEVDAANASEGPPLSLAEVQDLAKKCSTEYDELRDDAMRTARETGSASAEDAVRAFEREQLALAVARVQKKLVMFQENLPLLKRCVNVLSK,not soluble
2,MAHHHHHHMRPYKRVLIKLSGGALADQTGNSFNSKRLEHIANEILSIVDLGIEVSIVIGGGNIFRGHLAEEWGIDRVEADNIGTLGTIINSLMLRGVLTSKTNKEVRVMTSIPFNAVAEPYIRLRAVHHLDNGYIVIFGGGNGQPFVTTDYPSVQRAIEMNSDAILVAKQGVDGVFTSDPKHNKSAKMYRKLNYNDVVRQNIQVMDQAALLLARDYNLPAHVFNFDEPGVMRRICLGEHVGTLINDDASLLVHEK,soluble
3,MAHHHHHHMRSPASEGDCGVRLRVSWREGKQRALTDELDAKHQSDPYETLQTSDRKVFVSNTAAGAGRLLTDPQVHADDKGFSTYLRERLLVRVLPEGQKCVCGADASNEHVHTCTRLQQNPRTTRHEMISMTFANGLRLCGFQCGMEPRLTEASRRRPDILIVGLDTYAITDVTVTYAGRVTAYVSEESMEEADPLRAARDRLTQKRQKYRHWALANGLDFEPFVMLTNGAIHPAIRRWLRRILGARVLAYAGAQWVAERQ,soluble
4,MAHHHHHHMRTFSRTARITSSAACVGRFEHQGVSRDAVLARWSLQVVKPNAMKTGGLIGKGMKFASPLGPSGWATRNSGTGSTVLDVNWDLRERMDYYVHYSVPSTWTVVEHVSDNSVAIQSKPPVCDSPGAEGPTVHGFSLNCFAYKQKVKEPDCEKLLSLFLHRFDASVSNSLAVLSKASGRGNGVICGTAKPEQDISEVLANRLECAVAEITFTPAVGEPLAHGLCRAFYNSNRRFHYVVVVAVPEDEFTLSKDLLTHALLAVVESRVEAAPKGT,soluble
5,MAHHHHHHMRTSDARPASPSAAPPQSRKYQLSQRPLQLPRPPPRRFLEHPHHNLLPCTSDVKRLMENEYELRRVVRDVLLERLGMEGSHVEPPLRLCTEDSAEVTASPFCAVASVSTPLSSAGESAKQPRCAHDTGLRSMRAPDVDDIAGSSQPTWLMPWLQRLRMEQEKQLRQMRKMLVVARRSVSPDSSDVDARASSLMKTTGEARDDTRTAEPPHALLWQRHRCLPPADRPEAVEACSTLRAMQETMQAQSTQLARLEELLQETLIPDTARRTSHGAGALPLPSPSVHQVEAAAAARANHTGHRSRSNDTVLPTLTHTAASPKKNVRRAVPSRSGCSADVPAAAAAAAAATSSRVSTCVSAPSPPPRLHPEKRTLCGGVH,not soluble
6,MAHHHHHHMRTSPLWRLRMTSRPLSLERVFVINLDRRPDRWAAIQAVCARAGLPAERTERVPAVEGSRLDVNAVHHCGFVSALGLRRLKEPPEHHIWGMDLNKAALGCALSHIHLWARIAALGKVSNISAEAPAATLPKQCFLVLEDDSTFADSDDNGSDSPAASPSLPFLDQLQRRMNSVPPDWELVYVSGLDTAKQCLHMQVAKGVARVPQYHRTTNAYLVTPQGARRLLATCVPLTFQLDTAMTMNVGYPPGVVGVAGAQTLPHVLDPVCYTLQPPLMQQAAQLDTDIQH,soluble
7,MAHHHHHHMSDVIKLCEAEELKELFIKEYNEYLKLIKNVELYYEKLEINWKKFHLFYQQNKKDPFEYHKEKNKHNKIKKVQNKKKNINIHSDYQSIEKYFKMIQKKEIQNNCHYYKKFDYDKDSFILFTLKKNVNNAVELYININIEKLNKIKNYLLNYINDFCKRQINQIINLIILCEIKLNNLYISQKNHFTNNNIKIKHIHLIKNIIHFNQQFIFEVTKNLIPFFTNFNIFSSPDYFNYQFNYFNNCVEIMGE,not soluble
8,MAHHHHHHMSDVSIYALRGTSALYEVLGVSRNATQREIRQGYYRLAVLYHPDKNPEGSDIFKEVCFAHGILSDPEQRALYDSGTLRAELESRARACDPSMDPGVELSPEDLRVFVDRVRQTQEANRQVQSTFELRREEEMKRRAEFDAKNPSFKAEYEQARHLRQHGCRGSTSAAHARASATADLSKTVPPKVRTSAEVLAELQREEEERLYGNPGIGSVDSSSSKRAESDGLSTKHHMMSHYRATHREASGAESLSNSYSGGSTAATVRRRQLETTRLPFVRAHCETPQYSETISATVQAYANYDYLTFVEGGSMDHGELEGAIMADALGNYDRHH,not soluble
9,MAHHHHHHMSEAALKREIALQEASDVVDNKSRVLPKSPADTRERTHEVVAATEPFEHPISLRSKVSAYVTLALLFLFARLRESYRQFFPNDESHVRPGYAPIVKDFDHYWNRRFYRRVRDCFMRPIDSRPSRVIGVMERVSKDNNQTFEYSGRIVPAVNMGSYNYLGFAEDTQSITHEVLDSIDDYGLASCSAPQGLGQSALVSRLEHEFAEFLGKEDAIVCGMGFATNFRGLPTLFGKETLVLSDSLNHSSLVNGVRSSGAKVKVFQHNHFGQVEKCLREGVVLGQDPCGEYKPYKRIVIIIEGIYSMEGEIVNLKKFVELKKKYKALLFVDEAHSIGAIGRTGRGVCEHTGVDPKDVDVLMGTFTKSFGSIGGYIAADKTLVRYLRQHSSIALHCDPLAPPCAQQVLSVLHVLLGKDGTDLGEKRIRQLKDNSSFFRRGLMDLGLVVLGDDSSPVVPVMCYSIGRLSALSRLCLERGVAIVIVGYPATPLLQGRVRFCVSACHTREDLQRTLDVIRELKGYVCMEDSTNPLR,not soluble
10,MAHHHHHHMSEALTPPDSWSHGHPDVNAELKLLRGAVAQALVEARQSSDFCRRIQHDISEYFQSEQRRRVQSGDSIESEQFIPNVMASVDGHLAEFESFIIGRVREELENKVDKDLSEKFDSYRMQLEHLRQQEEEQEARLRFILEDAVKMNCELRNEMKWCASELWDRVSAMEEKLKFMATRTHTNAGGKDVMDLGLPNALREVIGILTLLSEGLEVERELHNEERQRWMSLMSRAVEKIRLLGERDEALEANLQELRQVAAAIQHRFGEFSGFVVDFWHRLEMMGSPSVAVEDAACEGSLSMYSKAGICAKKQMDDFMKELHEVGVALRALQVEHVGFKDILDSNTVNITEIRRNVEALAVGAKLIAEERERIDREESSLDLQYLIRSTPRDGNECEGSTGTPRRGNLSLRKQWQVAHLPTLELLHGKICNIPISHAFRLWAAWASGRRQLRRDKTMVHEPQEDPDTNSLGSRK,not soluble
11,MAHHHHHHMSGAGRKHRAKHLTQQYLDASGWVGPKEGERLAICMESPHGQHVRVLLLVHPNSAPASSSTEAPAPDGSSSSDAPHGAKESEAGVSASPPSAAPLLEVEQVVHLPRKFHKVIWLSIKDVVVIADGTVSFKPSPEQVESFLKDPRNKGWRERVATAQHRAEDQRAALQRMPHYAATAQTTTSVLTGPQVRSGVRATANGTSEQDSEGSEGEADDMRNPNWRNIKHQQHFFYGLGDDSDEIEEEEDA,not soluble
12,MAHHHHHHMSRYVKYFVQAKRLDKRKRKFGQMDFLELSKELSIPFPLRERNQPKHLDLSKYLNIKVGDLVKVLYGPYKDKEGIVLNINTKRNTVIVDGCNMKKSAWNVTKKNAGSIITQEMPIHITNVAILDPISKKATVVKRRYMMHGECVRISKISGCAMPEPVSVQALKEQNNYELFIHKKKTGPPIKDIYAERDSKNFNLLKKIAYEIKRRRFYEMKNFFRDASPGKGSASPGGGSASLGEGSSSLEG,not soluble
13,MAHHHHHHMSSRIGHAGTGMPTRGIASFPNSPPAVRNSCSTADTEGFGVSMESTIFTGTFSTAACAHAPTRRTVEAREQTSTVLDHLVTHIVDVPFFLARNAEERAHGCSLSLATAACPGTKLVMRNPRRRLISHSSQTHGAPASSHWPKVLFVPDSSSQRLAAPP,not soluble
